According to publication doi:10.1101/2025.07.24.666444:

What was measured:
[1] = molecular target: AtPCO4 Y183F (Arabidopsis thaliana)
[2] = molecular target: AtPCO4 Y73R (Arabidopsis thaliana)
[3] = molecular target: AtPCO4 S107L (Arabidopsis thaliana)
[4] = molecular target: AtPCO4 V105G (Arabidopsis thaliana)
[5] = molecular target: AtPCO4 C173A (Arabidopsis thaliana); assay: other fluorescence titration
[6] = molecular target: AtPCO4 D177E (Arabidopsis thaliana); assay: other fluorescence titration
[7] = molecular target: AtPCO4 Y183F (Arabidopsis thaliana); assay: other fluorescence titration
[8] = molecular target: AtPCO4 Y73R (Arabidopsis thaliana); assay: other fluorescence titration

For “RAP2.12_(2-15) peptide substrate (from UniProt Q9SSA8 2-15)”, which catalytic constant (kcat) of RAP2.12 (2-15) oxidation [1] is on record?
The catalytic constant (kcat) of RAP2.12 (2-15) oxidation was 0.5 s⁻¹.

And the catalytic constant (kcat) of RAP2.12 (2-15) oxidation [2]?
The catalytic constant (kcat) of RAP2.12 (2-15) oxidation was 0.0167 s⁻¹.

What about the Michaelis-Menten constant (KM) for RAP2.12 (2-15) in the activity assay [3] of the same substance?
The Michaelis-Menten constant (KM) for RAP2.12 (2-15) in the activity assay was 99 µM.

What about the Michaelis-Menten constant (KM) for RAP2.12 (2-15) in the activity assay [4] of the same substance?
The Michaelis-Menten constant (KM) for RAP2.12 (2-15) in the activity assay was 97 µM.

What about the Kd [5] of the same substance?
The Kd was 250 µM.

What about the Kd [6] of the same substance?
Its Kd is 150 µM.

And the Kd [7]?
Its Kd is 3500 µM.

And the Kd [8]?
Its Kd is 3000 µM.
